Patent publication US20220177587A1, “METHODS AND USES OF VARIANT CD80 FUSION PROTEINS AND RELATED CONSTRUCTS” (Alpine Immune Sciences, Inc., priority 2018, published 2022)

Assays:
huCTLA4 = huCTLA4 (Homo sapiens, UniProt P16410); assay: Flow binding to CHO cells stably expressing CTLA4; set-up: huCTLA4 and huPD-L1, full-length mammalian surface expression constructs were generated; expressed in transfected cells; host or cells: CHO cells, lentiviral transduction, sorted to >98% purity; settings: Table E4; 33.3 nM variant CD80 IgV-Fc; CHO cells stably expressing CTLA4
huCTLA4, sequence (P16410 36-223): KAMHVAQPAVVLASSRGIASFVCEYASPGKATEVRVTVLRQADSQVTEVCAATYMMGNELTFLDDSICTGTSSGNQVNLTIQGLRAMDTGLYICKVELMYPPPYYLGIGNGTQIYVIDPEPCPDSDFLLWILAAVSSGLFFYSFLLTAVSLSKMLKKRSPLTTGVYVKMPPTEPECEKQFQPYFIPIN
Procedure: (§1) Binding of selected immunomodulatory fusion proteins to cognate binding partners was assessed. […] Cells were sorted in a Bio-Rad S3 Cell Sorter (Bio-Rad Corp., USA) to >98% purity. Jurkat/IL2 reporter cells, which endogenously express CD28, were used to detect binding to CD28.
(§2) For staining and analysis by flow cytometry, 100,000 cells of appropriate transfected cells were plated in 96-well round bottom plates. Cells were spun down and resuspended in staining buffer (phosphate buffered saline (PBS), 1% bovine serum albumin (BSA), and 0.1% sodium azide) for 20 minutes to block non-specific binding. […] Primary staining was performed on ice for 45 minutes, before washing cells in staining buffer twice. Phycoerythrin (PE)-conjugated anti-human Fc (Jackson ImmunoResearch, USA) was diluted 1:150, added to cells and incubated another 30 minutes on ice. Cells were then washed twice with 150 μL/well stain buffer, fixed in 2% formaldehyde/PBS, and analyzed on Intellicyt flow cytometer (Intellicyt Corp., USA). PE Mean Fluorescence Intensity (MFI) was calculated for each cell type with FlowJo Version 10 software (FlowJo LLC, USA).
(§3) Binding assays were carried out to assess the specificity and affinity of multivalent proteins to cell-expressed CTLA-4, CD28, and PD-L1 counter structures.
(§4) The EC50 for binding also was determined.

huPD-L1 = huPD-L1 (Homo sapiens, UniProt Q9NZQ7); assay: Flow binding to CHO cells stably expressing PD-L1; set-up: huCTLA4 and huPD-L1, full-length mammalian surface expression constructs were generated; expressed in transfected cells; host or cells: CHO cells, lentiviral transduction, sorted to >98% purity; settings: CHO cells stably expressing PD-L1
huPD-L1, sequence (Q9NZQ7 19-290): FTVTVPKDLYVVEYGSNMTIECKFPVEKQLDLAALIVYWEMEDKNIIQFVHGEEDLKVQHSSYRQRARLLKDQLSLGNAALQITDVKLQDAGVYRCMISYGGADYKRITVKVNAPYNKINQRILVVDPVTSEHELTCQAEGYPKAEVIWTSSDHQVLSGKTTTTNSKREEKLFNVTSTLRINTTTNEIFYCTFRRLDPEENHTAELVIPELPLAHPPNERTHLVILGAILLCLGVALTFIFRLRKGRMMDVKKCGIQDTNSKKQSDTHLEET
Procedure: as §1, §2, §3, §4

CD28 = CD28 (Homo sapiens, UniProt P10747); assay: Jurkat/IL2 + CHO/OKT3 +/- PD-L1 reporter assay: PD-L1-dependent CD28 costimulation; assay type: cell-based; set-up: host or cells: Jurkat cells expressing an IL-2-luciferase reporter; settings: Jurkat/IL2 + CHO/OKT3/PD-L1
Procedure: Jurkat cells were then plated at 50 μL/well for a total of 100,000 cells per well.
To each well, 25 μL of test protein was added to the Jurkat cells. […] The Jurkat cells with test or control proteins were incubated for 15 minutes at room temperature. CHO-derived artificial antigen presenting cells (aAPC) displaying transduced cell surface anti-CD3 single chain Fv (OKT3) (i.e., no PD-L1), or OKT3 and PD-L1 (i.e., +PD-L1), were brought to 0.8×10^6 cells/mL, and 25 μL of cells were added to each well, bringing the final volume of each well to 100 μL. […] Jurkat cells and CHO cells were incubated for 5 hours at 37 degrees Celsius in a humidified 5% CO2 incubation chamber. Plates were then removed from the incubator and acclimated to room temperature for 15 minutes. 100 μL of a cell lysis and luciferase substrate solution (BioGlo luciferase reagent, Promega) were added to each well and the plates were incubated on an orbital shaker for 10 minutes. Luminescence was measured with a 1 second per well integration time using a BioTek Cytation luminometer, and a relative luminescence value (RLU) was determined for each test sample.

B1: E35D/M38I/M43V/M47V/N48R/L85Q (protein)
chain: VIHVTKEVKEVATLSCGHNVSVEELAQTRIYWQKDKKTVLTMVSGDVRIWPEYKNRTIFDITNNLSIVILALRPSDEGTYECVVQKYEKDAFKREHLAEVTLSVKAD
CTLA4 MFI at 33.3 nM (huCTLA4): 203938

B2: E35D/D46V (protein)
chain: VIHVTKEVKEVATLSCGHNVSVEELAQTRIYWQKDKKMVLTMMSGVMNIWPEYKNRTIFDITNNLSIVILALRPSDEGTYECVVLKYEKDAFKREHLAEVTLSVKAD
PD-L1 MFI at 33.3 nM (huPD-L1; Table E19, 33.3 nM): 3971

B3: H18Y/E35D/M47V/N48K (protein)
chain: VIHVTKEVKEVATLSCGYNVSVEELAQTRIYWQKDKKMVLTMMSGDVKIWPEYKNRTIFDITNNLSIVILALRPSDEGTYECVVLKYEKDAFKREHLAEVTLSVKAD
Relative Luciferase Units (RLU), CD80 Cone 5.0 nM (CD28; Table E12, 5.0 nM): 2146 RLU | PD-L1 MFI at 33.3 nM (huPD-L1; Table E10, 33.3 nM): 6462

B4: T13R/Q27L/Q33L/E35D/T41S/M47V/N48KN68M/L85M (protein)
chain: VIHVTKEVKEVARLSCGHNVSVEELALTRIYWLKDKKMVLSMMSGDVKIWPEYKNRTIFDITNNLSIMILALRPSDEGTYECVVMKYEKDAFKREHLAEVTLSVKAD
Fold Increase over WT CD80-IgV-Fe (CD28; Table E13, 5.0 nM): 0.4 | Relative Luciferase Units (RLU), CD80 Cone 5.0 nM (CD28; Table E13, 5.0 nM): 170 RLU

B5: E35D/M47V/V68M (protein)
chain: VIHVTKEVKEVATLSCGHNVSVEELAQTRIYWQKDKKMVLTMMSGDVNIWPEYKNRTIFDITNNLSIMILALRPSDEGTYECVVLKYEKDAFKREHLAEVTLSVKAD
Relative Luciferase Units (RLU), CD80 Conc 5.0 nM (CD28; Table E21, CD80 Conc 5.0 nM): 841 RLU

B6: M47V/N48K/V68M/K89N (protein)
chain: VIHVTKEVKEVATLSCGHNVSVEELAQTRIYWQKEKKMVLTMMSGDVKIWPEYKNRTIFDITNNLSIMILALRPSDEGTYECVVLKYENDAFKREHLAEVTLSVKAD
Relative Luciferase Units (RLU), CD80 Conc 5.0 nM (CD28; Table E21, CD80 Conc 5.0 nM): 671 RLU | PD-L1 MFI at 33.3 nM (huPD-L1; Table E19, 33.3 nM): 23666

B7: H18Y/E35D/M47L/A71G (protein)
chain: VIHVTKEVKEVATLSCGYNVSVEELAQTRIYWQKDKKMVLTMMSGDLNIWPEYKNRTIFDITNNLSIVILGLRPSDEGTYECVVLKYEKDAFKREHLAEVTLSVKAD
Relative Luciferase Units (RLU), CD80 Conc 5.0 nM (CD28; Table E22, CD80 Conc 5.0 nM): 1387 RLU

B8: D46V/M47L/V68M/L85Q (protein)
chain: VIHVTKEVKEVATLSCGHNVSVEELAQTRIYWQKEKKMVLTMMSGVLNIWPEYKNRTIFDITNNLSIMILALRPSDEGTYECVVQKYEKDAFKREHLAEVTLSVKAD
Relative Luciferase Units (RLU), CD80 Conc 5.0 nM (CD28; Table E21, CD80 Conc 5.0 nM): 654 RLU

B9: H18Y/A26P/E35D/M47T/V68M/A71G (protein)
chain: VIHVTKEVKEVATLSCGYNVSVEELPQTRIYWQKDKKMVLTMMSGDINIWPEYKNRTIFDITNNLSIMILGLRPSDEGTYECVVLKYEKDAFKREHLAEVTLSVKAD
Fold Increase over WT CD80-IgV-Fe (CD28; Table E24, 5.0 nM): 4.5 | Relative Luciferase Units (RLU), CD80 Conc 5.0 nM (CD28; Table E24, 5.0 nM): 761 RLU

B10: H18Y/M47L/V68M/A71G (protein)
chain: VIHVTKEVKEVATLSCGYNVSVEELAQTRIYWQKEKKMVLTMMSGDLNIWPEYKNRTIFDITNNLSIMILGLRPSDEGTYECVVLKYEKDAFKREHLAEVTLSVKAD
PD-L1 MFI at 33.3 nM (huPD-L1; Table E20, 33.3 nM): 28478

B11: H181/A26P/E35D/M47V/V68M/A71G (protein)
chain: VIHVTKEVKEVATLSCGINVSVEELPQTRIYWQKDKKMVLTMMSGDVNIWPEYKNRTIFDITNNLSIMILGLRPSDEGTYECVVLKYEKDAFKREHLAEVTLSVKAD
Fold Increase over WT CD80-IgV-Fe (CD28; Table E24, 5.0 nM): 5.4 | Relative Luciferase Units (RLU), CD80 Conc 5.0 nM (CD28; Table E24, 5.0 nM): 916 RLU

B12: V22D/E24D/E35D/M47L/V68M/L85M/D90G (protein)
chain: VIHVTKEVKEVATLSCGHNVSDEDLAQTRIYWQKDKKMVLTMMSGDLNIWPEYKNRTIFDITNNLSIMILALRPSDEGTYECVVMKYEKGAFKREHLAEVTLSVKADFPTPSISDFETPTSNIRRIICSTSGGFPEPHLSWLENGEELNAINTTVSQDPETELYAVSSKLDFNMTTNHSFMCLIKYGHLRVNQTFNWNTTKQEHFPDN
modifications: CD80 v384 ECD
Relative Luciferase Units (RLU), CD80 Cone 5.0 nM (CD28; Table E13, 5.0 nM): 963 RLU | PD-L1 MFI at 33.3 nM (huPD-L1; Table E11, 33.3 nM): 19047

B13: E35D/D46E/M47L/V68M/A71G/Y87C/K93R (protein, UniProt P33681 35-288, looked up, variant E35D D46E M47L V68M A71G Y87C K93R)
T-lymphocyte activation …: VIHVTKEVKEVATLSCGHNVSVEELAQTRIYWQKDKKMVLTMMSGELNIWPEYKNRTIFDITNNLSIMILGLRPSDEGTYECVVLKCEKDAFRREHLAEVTLSVKADFPTPSISDFEIPTSNIRRIICSTSGGFPEPHLSWLENGEELNAINTTVSQDPETELYAVSSKLDFNMTTNHSFMCLIKYGHLRVNQTFNWNTTKQEHFPDNLLPSWAITLISVNGIFVICCLTYCFAPRCRERRRNERLRRESVRPV
Relative Luciferase Units (RLU), CD80 Cone 5.0 nM (CD28; Table E13, 5.0 nM): 1198 RLU

B14: E35D/M47V/N48K/V68M/L85M (protein, UniProt P33681 35-288, looked up, variant E35D M47V N48K V68M L85M)
T-lymphocyte activation …: VIHVTKEVKEVATLSCGHNVSVEELAQTRIYWQKDKKMVLTMMSGDVKIWPEYKNRTIFDITNNLSIMILALRPSDEGTYECVVMKYEKDAFKREHLAEVTLSVKADFPTPSISDFEIPTSNIRRIICSTSGGFPEPHLSWLENGEELNAINTTVSQDPETELYAVSSKLDFNMTTNHSFMCLIKYGHLRVNQTFNWNTTKQEHFPDNLLPSWAITLISVNGIFVICCLTYCFAPRCRERRRNERLRRESVRPV
Fold Increase over WT CD80-IgV-Fe (CD28; Table E13, 5.0 nM): 3.0 | Relative Luciferase Units (RLU), CD80 Cone 5.0 nM (CD28; Table E13, 5.0 nM): 1203 RLU

B15: H18V/A26N/E35D/M47V/V68M/A71G (protein, UniProt P33681 35-288, looked up, variant H18V A26N E35D M47V V68M A71G)
T-lymphocyte activation …: VIHVTKEVKEVATLSCGVNVSVEELNQTRIYWQKDKKMVLTMMSGDVNIWPEYKNRTIFDITNNLSIMILGLRPSDEGTYECVVLKYEKDAFKREHLAEVTLSVKADFPTPSISDFEIPTSNIRRIICSTSGGFPEPHLSWLENGEELNAINTTVSQDPETELYAVSSKLDFNMTTNHSFMCLIKYGHLRVNQTFNWNTTKQEHFPDNLLPSWAITLISVNGIFVICCLTYCFAPRCRERRRNERLRRESVRPV
Relative Luciferase Units (RLU), CD80 Conc 5.0 nM (CD28; Table E24, 5.0 nM): 985 RLU | PD-L1 MFI at 33.3 nM (huPD-L1; Table E23, CD80 IgV-Fc (inert) at 33.3 nM): 68165

B16: T13R/E35D/M47L/V68M (protein, UniProt P33681 35-288, looked up, variant T13R E35D M47L V68M)
T-lymphocyte activation …: VIHVTKEVKEVARLSCGHNVSVEELAQTRIYWQKDKKMVLTMMSGDLNIWPEYKNRTIFDITNNLSIMILALRPSDEGTYECVVLKYEKDAFKREHLAEVTLSVKADFPTPSISDFEIPTSNIRRIICSTSGGFPEPHLSWLENGEELNAINTTVSQDPETELYAVSSKLDFNMTTNHSFMCLIKYGHLRVNQTFNWNTTKQEHFPDNLLPSWAITLISVNGIFVICCLTYCFAPRCRERRRNERLRRESVRPV
Fold Increase over WT CD80-IgV-Fe (CD28; Table E13, 5.0 nM): 2.6 | Relative Luciferase Units (RLU), CD80 Cone 5.0 nM (CD28; Table E13, 5.0 nM): 1021 RLU
